These results are taken from paper PMC6234845 (Biochemistry, 2018).

Data set [1] has as its target Src13-GCN4-EGFP / Src13-GCN4-mCH. The data set can be described thus: PIE-FCCS.
The data set “PIE-FCCS” deals with the molecule itself. Kind of data set: PIE-FCCS.

Turning to Src13-GCN4-EGFP / Src13-GCN4-mCH, the fc, fraction correlated in data set [1] amounted to 0.13.

B1: wild type rod opsin-EGFP / rod opsin-mCherry (receptor, mouse, UniProt P15409 1-348, looked up)
chain: MNGTEGPNFYVPFSNVTGVVRSPFEQPQYYLAEPWQFSMLAAYMFLLIVLGFPINFLTLYVTVQHKKLRTPLNYILLNLAVADLFMVFGGFTTTLYTSLHGYFVFGPTGCNLEGFFATLGGEIALWSLVVLAIERYVVVCKPMSNFRFGENHAIMGVVFTWIMALACAAPPLVGWSRYIPEGMQCSCGIDYYTLKPEVNNESFVIYMFVVHFTIPMIVIFFCYGQLVFTVKEAAAQQQESATTQKAEKEVTRMVIIMVIFFLICWLPYASVAFYIFTHQGSNFGPIFMTLPAFFAKSSSIYNPVIYIMLNKQFRNCMLTTLCCGKNPLGDDDASATASKTETSQVAPA
For B1, in “PIE-FCCS”, the “fc (mean), fraction correlated” value was 0.114 and the “fc (median), fraction correlated” value was 0.107.
